Measured values reported in patent US20100215656A1.

Assays:
CD22 (human) = CD22 (human) (UniProt P20273); assay: cell-based or functional assay
mesothelin = mesothelin (UniProt Q13421); assay: cell-based or functional assay
Chain of UniProt Q13421 (Q13421 other isoform, or with tags, fused parts or gaps limits assumed): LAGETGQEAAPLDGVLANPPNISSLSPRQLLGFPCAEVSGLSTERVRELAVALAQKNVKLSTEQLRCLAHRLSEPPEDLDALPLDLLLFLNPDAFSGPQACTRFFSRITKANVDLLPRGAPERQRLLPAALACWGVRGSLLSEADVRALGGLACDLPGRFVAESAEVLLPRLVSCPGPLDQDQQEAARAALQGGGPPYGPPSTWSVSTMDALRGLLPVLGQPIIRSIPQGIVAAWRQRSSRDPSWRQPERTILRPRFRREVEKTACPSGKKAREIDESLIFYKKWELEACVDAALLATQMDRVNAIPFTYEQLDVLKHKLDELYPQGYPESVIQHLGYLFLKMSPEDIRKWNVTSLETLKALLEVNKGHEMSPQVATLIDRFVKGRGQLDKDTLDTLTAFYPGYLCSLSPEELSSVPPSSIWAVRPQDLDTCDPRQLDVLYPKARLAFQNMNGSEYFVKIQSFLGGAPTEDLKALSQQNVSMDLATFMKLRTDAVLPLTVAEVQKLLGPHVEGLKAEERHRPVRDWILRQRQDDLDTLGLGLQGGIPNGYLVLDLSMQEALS

Chain of UniProt P20273 (P20273 20-847): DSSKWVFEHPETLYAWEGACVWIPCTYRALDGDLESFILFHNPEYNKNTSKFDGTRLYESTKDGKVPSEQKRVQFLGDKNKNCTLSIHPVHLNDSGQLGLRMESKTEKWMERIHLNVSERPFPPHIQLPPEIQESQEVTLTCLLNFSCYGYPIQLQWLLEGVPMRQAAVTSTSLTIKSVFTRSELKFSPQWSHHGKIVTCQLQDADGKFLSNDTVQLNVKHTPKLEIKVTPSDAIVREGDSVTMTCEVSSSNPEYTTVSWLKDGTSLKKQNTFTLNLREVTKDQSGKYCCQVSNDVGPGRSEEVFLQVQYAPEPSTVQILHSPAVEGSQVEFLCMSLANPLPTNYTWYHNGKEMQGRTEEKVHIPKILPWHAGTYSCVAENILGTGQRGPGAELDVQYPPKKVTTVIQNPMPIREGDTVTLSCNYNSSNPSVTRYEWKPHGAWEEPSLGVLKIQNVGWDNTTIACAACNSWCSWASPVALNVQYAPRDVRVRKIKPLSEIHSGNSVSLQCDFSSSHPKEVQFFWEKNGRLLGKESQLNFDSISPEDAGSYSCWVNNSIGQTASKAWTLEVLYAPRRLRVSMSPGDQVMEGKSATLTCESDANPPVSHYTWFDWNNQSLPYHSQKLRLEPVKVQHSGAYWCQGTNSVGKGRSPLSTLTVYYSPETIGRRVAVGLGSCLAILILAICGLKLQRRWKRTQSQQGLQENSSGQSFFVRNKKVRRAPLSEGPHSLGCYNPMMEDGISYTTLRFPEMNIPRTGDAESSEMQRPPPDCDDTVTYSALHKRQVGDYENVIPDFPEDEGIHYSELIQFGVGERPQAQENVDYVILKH

HA22-LR (anti-CD22 dsFv of HA22 fused to the 25-kDa lysosome-resistant PE fragment, PE25 / PE-LR)
Relative Activity (against HA22) on CA46 cells (CD22 (human)): 1.15
Relative Activity (against HA22) on Daudi cells (CD22 (human)): 1.12
Relative Activity (against HA22) on KOPN-8 cells (CD22 (human)): 0.22
Relative Activity (against HA22) on Raji cells (CD22 (human)): 0.49
Relative Activity (against HA22) on Ramos cells (CD22 (human)): 0.91
Relative Activity (against HA22) on WSU-CLL cells (CD22 (human)): 2.12
Relative Activity (against HA22), cell death, CLL #1 (CD22 (human)): 16.2
Relative Activity (against HA22), cell death, CLL #2 (CD22 (human)): 7.65
Relative Activity (against HA22), cell death, HCL #2 (CD22 (human)): 0.08
Relative Activity (against HA22), cell death, HCL #3 (CD22 (human)): 1.39
Relative Activity (against HA22), protein synthesis, CLL #1 (CD22 (human)): > 210
Relative Activity (against HA22), protein synthesis, CLL #2 (CD22 (human)): > 16.8
Relative Activity (against HA22), protein synthesis, CLL #3 (CD22 (human)): 2.07
Relative Activity (against HA22), protein synthesis, CLL #4 (CD22 (human)): 51.8
Relative Activity (against HA22), protein synthesis, CLL #5 (CD22 (human)): 2.16
Relative Activity (against HA22), protein synthesis, HCL #1 (CD22 (human)): 0.88
Relative Activity (against HA22), protein synthesis, HCL #2 (CD22 (human)): 0.14
Relative Activity (against HA22), protein synthesis, HCL #3 (CD22 (human)): > 1.76
inhibition of protein synthesis at 1 ng/ml, patient cells CLL #2 (CD22 (human)): 55%

SS1-PE-LR (antibody SS1 fused to the PE used in HA22-LR)
IC50 (ng/ml), cytotoxicity on A431/K5 cells (mesothelin): 1.19 ng/mL
IC50 (ng/ml), cytotoxicity on A1847 cells (*Incomplete cell killing) (mesothelin): 4.24 ng/mL
IC50 (ng/ml), cytotoxicity on HAY cells (mesothelin): 1.22 ng/mL
IC50 (ng/ml), cytotoxicity on KB31 cells (*Incomplete cell killing) (mesothelin): > 1000 ng/mL
IC50 (ng/ml), cytotoxicity on L55 cells (mesothelin): 3.87 ng/mL
IC50 (ng/ml), cytotoxicity on OVCAR-8 cells (*Incomplete cell killing) (mesothelin): 4.29 ng/mL
Relative Activity (against the PE38 immunotoxin) on A431/K5 cells (mesothelin): 0.17
Relative Activity (against the PE38 immunotoxin) on A1847 cells (mesothelin): 0.96
Relative Activity (against the PE38 immunotoxin) on HAY cells (mesothelin): 3.72
Relative Activity (against the PE38 immunotoxin) on KB31 cells (fold decrease) (mesothelin): > 200
Relative Activity (against the PE38 immunotoxin) on L55 cells (mesothelin): 1.23
Relative Activity (against the PE38 immunotoxin) on OVCAR-8 cells (mesothelin): 0.54

SS1P (antibody SS1 fused to PE38)
IC50 (ng/ml), cytotoxicity on A431/K5 cells (mesothelin): 0.2 ng/mL
IC50 (ng/ml), cytotoxicity on A1847 cells (mesothelin): 4.06 ng/mL
IC50 (ng/ml), cytotoxicity on HAY cells (mesothelin): 4.54 ng/mL
IC50 (ng/ml), cytotoxicity on KB31 cells (mesothelin): 5.15 ng/mL
IC50 (ng/ml), cytotoxicity on L55 cells (mesothelin): 4.77 ng/mL
IC50 (ng/ml), cytotoxicity on OVCAR-8 cells (mesothelin): 2.32 ng/mL
